According to publication PMC2898367 (The Journal of Biological Chemistry, 2010):

T1: CD81 tagged with AcGFP or DsRED (UniProt P60033 1-236)
T1 sequence (looked up): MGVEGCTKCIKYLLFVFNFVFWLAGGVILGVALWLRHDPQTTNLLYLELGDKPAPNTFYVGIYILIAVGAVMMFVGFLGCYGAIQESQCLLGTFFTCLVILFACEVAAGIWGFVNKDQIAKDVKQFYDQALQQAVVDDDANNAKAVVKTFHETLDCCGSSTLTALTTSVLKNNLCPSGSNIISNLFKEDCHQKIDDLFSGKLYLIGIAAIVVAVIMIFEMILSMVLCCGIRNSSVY

T2: DsRED-tagged Occludin (UniProt Q16625 1-522)
T2 sequence (looked up): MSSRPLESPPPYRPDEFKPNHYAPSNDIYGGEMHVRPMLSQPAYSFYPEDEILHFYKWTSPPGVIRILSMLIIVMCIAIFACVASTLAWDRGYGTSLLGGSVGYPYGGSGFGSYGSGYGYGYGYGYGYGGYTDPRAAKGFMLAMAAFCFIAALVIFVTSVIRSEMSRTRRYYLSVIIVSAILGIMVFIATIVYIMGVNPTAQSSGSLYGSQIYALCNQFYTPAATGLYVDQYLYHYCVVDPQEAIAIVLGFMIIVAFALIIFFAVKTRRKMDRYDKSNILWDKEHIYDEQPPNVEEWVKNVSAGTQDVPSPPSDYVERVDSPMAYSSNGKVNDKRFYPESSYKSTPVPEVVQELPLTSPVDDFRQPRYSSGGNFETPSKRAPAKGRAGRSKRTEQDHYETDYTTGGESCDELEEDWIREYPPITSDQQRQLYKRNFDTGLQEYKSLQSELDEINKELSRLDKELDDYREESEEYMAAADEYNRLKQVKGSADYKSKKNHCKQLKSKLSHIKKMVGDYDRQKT

T3: CD81 tagged with AcGFP or DsRED, P60033
T3 chain: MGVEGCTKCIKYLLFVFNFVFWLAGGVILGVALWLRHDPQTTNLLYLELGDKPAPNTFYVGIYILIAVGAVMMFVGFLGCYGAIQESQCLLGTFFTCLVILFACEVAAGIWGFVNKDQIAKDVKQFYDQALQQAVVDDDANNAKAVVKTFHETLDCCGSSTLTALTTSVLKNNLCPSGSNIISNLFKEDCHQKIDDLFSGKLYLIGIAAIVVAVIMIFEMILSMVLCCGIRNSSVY

B1: Claudin-1 tagged with AcGFP or DsRED (natural protein, UniProt O95832 1-211, looked up)
chain: MANAGLQLLGFILAFLGWIGAIVSTALPQWRIYSYAGDNIVTAQAMYEGLWMSCVSQSTGQIQCKVFDSLLNLSSTLQATRALMVVGILLGVIAIFVATVGMKCMKCLEDDEVQKMRMAVIGGAIFLLAGLAILVATAWYGNRIVQEFYDPMTPVNARYEFGQALFTGWAAASLCLLGGALLCCSCPRKTTSYPTPRPYPKPAPSSGKDYV

How the values were obtained:
Assay in all cases: FRET or BRET
[1] = molecular target: CD81 tagged with AcGFP or DsRED (UniProt P60033)
[2] = molecular target: T1, CD81 tagged with AcGFP or DsRED
DsRED-tagged Occludin = molecular target: T2, DsRED-tagged Occludin
[3] = molecular target: B1
[4] = molecular target: T3, CD81 tagged with AcGFP or DsRED, P60033; conditions: remark: other sources report otherwise

%FRET (DsRED-tagged Occludin) [%] | %FRET [3] [%] | Molecule | also measured
 |  | Claudin-1 tagged with AcGFP or DsRED (from UniProt O95832 1-211) (natural protein) | %FRET [1]: 25%; %FRET (after 10 mM MβCD, 1 h) [1]: 35%
27 | 31 | AcGFP-tagged Claudin-6 (natural protein, UniProt P56747 1-220, looked up) MASAGMQILGVVLTLLGWVNGLVSCALPMWKVTAFIGNSIVVAQVVWEGLWMSCVVQSTGQMQCKVYDSLLALPQDLQAARALCVIALLVALFGLLVYLAGAKCTTCVEEKDSKARLVLTSGIVFVISGVLTLIPVCWTAHAIIRDFYNPLVAEAQKRELGASLYLGWAASGLLLLGGGLLCCTCPSGGSQGPSHYMARYSTSAPAISRGPSEYPTKNYV | %FRET [2]: 50%
40 |  | AcGFP-tagged Claudin-17 (natural protein, UniProt P56750 1-224, looked up) MAFYPLQIAGLVLGFLGMVGTLATTLLPQWRVSAFVGSNIIVFERLWEGLWMNCIRQARVRLQCKFYSSLLALPPALETARALMCVAVALSLIALLIGICGMKQVQCTGSNERAKAYLLGTSGVLFILTGIFVLIPVSWTANIIIRDFYNPAIHIGQKRELGAALFLGWASAAVLFIGGGLLCGFCCCNRKKQGYRYPVPGYRVPHTDKRRNTTMLSKTSTSYV | 
23 |  | AcGFP-tagged Claudin-11 (natural protein, UniProt O75508 1-207, looked up) MVATCLQVVGFVTSFVGWIGVIVTTSTNDWVVTCGYTIPTCRKLDELGSKGLWADCVMATGLYHCKPLVDILILPGYVQACRALMIAASVLGLPAILLLLTVLPCIRMGQEPGVAKYRRAQLAGVLLILLALCALVATIWFPVCAHRETTIVSFGYSLYAGWIGAVLCLVGGCVILCCAGDAQAFGENRFYYTAGSSSPTHAKSAHV | 
 |  | CD81 tagged with AcGFP or DsRED, P60033 1-236 (natural protein) MGVEGCTKCIKYLLFVFNFVFWLAGGVILGVALWLRHDPQTTNLLYLELGDKPAPNTFYVGIYILIAVGAVMMFVGFLGCYGAIQESQCLLGTFFTCLVILFACEVAAGIWGFVNKDQIAKDVKQFYDQALQQAVVDDDANNAKAVVKTFHETLDCCGSSTLTALTTSVLKNNLCPSGSNIISNLFKEDCHQKIDDLFSGKLYLIGIAAIVVAVIMIFEMILSMVLCCGIRNSSVY | %FRET (after 10 mM MβCD, 1 h) [4]: 55%; %FRET (untreated cells) [4]: 63%
48 |  | B1 | 
18 | 18 | AcGFP-tagged Claudin-9 (natural protein, UniProt O95484 1-217, looked up) MASTGLELLGMTLAVLGWLGTLVSCALPLWKVTAFIGNSIVVAQVVWEGLWMSCVVQSTGQMQCKVYDSLLALPQDLQAARALCVIALLLALLGLLVAITGAQCTTCVEDEGAKARIVLTAGVILLLAGILVLIPVCWTAHAIIQDFYNPLVAEALKRELGASLYLGWAAAALLMLGGGLLCCTCPPPQVERPRGPRLGYSIPSRSGASGLDKRDYV | %FRET [2]: 63%
38 |  | AcGFP-tagged Claudin-12 (natural protein, UniProt P56749 1-244, looked up) MGCRDVHAATVLSFLCGIASVAGLFAGTLLPNWRKLRLITFNRNEKNLTVYTGLWVKCARYDGSSDCLMYDTTWYSSVDQLDLRVLQFALPLSMLIAMGALLLCLIGMCNTAFRSSVPNIKLAKCLVNSAGCHLVAGLLFFLAGTVSLSPSIWVIFYNIHLNKKFEPVFSFDYAVYVTIASAGGLFMTSLILFIWYCTCKSLPSPFWQPLYSHPPSMHTYSQPYSARSRLSAIEIDIPVVSHTT | 
 | 18 | AcGFP-tagged Claudin-4 (natural protein, UniProt O14493 1-209, looked up) MASMGLQVMGIALAVLGWLAVMLCCALPMWRVTAFIGSNIVTSQTIWEGLWMNCVVQSTGQMQCKVYDSLLALPQDLQAARALVIISIIVAALGVLLSVVGGKCTNCLEDESAKAKTMIVAGVVFLLAGLMVIVPVSWTAHNIIQDFYNPLVASGQKREMGASLYVGWAASGLLLLGGGLLCCNCPPRTDKPYSAKYSAARSAAASNYV | 
